Assay results taken from patent publication US20190022237.

Assays:
[1] = biological target: T1, Permanent N-terminal CNP-38 PEG 5 kDa conjugate 15e (not fully specified)
T1 chain: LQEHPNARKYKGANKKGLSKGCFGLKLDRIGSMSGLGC

[2] = biological target: T2, Permanent N-terminal CNP-34 PEG 5 kDa conjugate 14e (not fully specified)
T2 chain: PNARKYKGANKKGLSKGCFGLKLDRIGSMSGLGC

[3] = biological target: T3, Permanent Lys26 CNP-38 PEG4x10 kDa conjugate 12g (not fully specified)
T3 chain: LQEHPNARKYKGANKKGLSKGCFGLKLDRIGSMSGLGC

Measured: half life norm. [h] (in vitro NEP digest)

B1: recombinant human Neutral Endopeptidase (NEP) (protein)
chain: YDDGICKSSDCIKSAARLIQNMDATTEPCTDFFKYACGGWLKRNVIPETSSRYGNFDILRDELEVVLKDVLQEPKTEDIVAVQKAKALYRSCINESAIDSRGGEPLLKLLPDIYGWPVATENWEQKYGASWTAEKAIAQLNSKYGKKVLINLFVGTDDKNSVNHVIHIDQPRLGLPSRDYYECTGIYKEACTAYVDFMISVARLIRQEERLPIDENQLALEMNKVMELEKEIANATAKPEDRNDPMLLYNKMTLAQIQNNFSLEINGKPFSWLNFTNEIMSTVNISITNEEDVVVYAPEYLTKLKPILTKYSARDLQNLMSWRFIMDLVSSLSRTYKESRNAFRKALYGTTSETATWRRCANYVNGNMENAVGRLYVEAAFAGESKHVVEDLIAQIREVFIQTLDDLTWMDAETKKRAEEKALAIKERIGYPDDIVSNDNKLNNEYLELNYKEDEYFENIIQNLKFSQSKQLKKLREKVDKDEWISGAAVVNAFYSSGRNQIVFPAGILQPPFFSAQQSNSLNYGGIGMVIGHEITHGFDDNGRNFNKDGDLVDWWTQQSASNFKEQSQCMVYQYGNFSWDLAGGQHLNGINTLGENIADNGGLGQAYRAYQNYIKKNGEEKLLPGLDLNHKQLFFLNFAQVWCGTYRPEYAVNSIKTDVHSPGNFRIIGTLQNSAEFSEAFHCRKNSYMNPEKKCRVW
Almost no proteolysis after 4 days.: all assays above
